Patent publication US20140289906A1, “Compositions Having Dicamba Decarboxylase Activity and Methods of Use” (priority 2013, published 2014)

Experiment: 14C assay: 14CO2 capture from [14C]-carboxyl-labeled dicamba with IPTG-induced recombinant E. coli cells
Settings: for Dicamba Decarboxylase Activity: IPTG-induced recombinant E. coli cells, 14CO2 from [14C]-carboxyl-labeled dicamba; for decarboxylation activity of dicamba: among the 108 sequences tested, recombinant E. coli cell assay; for Enzymatic Detection level: dicamba decarboxylation activity

B1: 48 (protein, listed as Amycolatopsis mediterranei)
chain: MASMKLYGLEEHFVTADVIEAWRRRDPGLAEPMMKWAVASDITPALLDVDGGRIAAMDDAGIDTTVLSLTTPGLQNLDAAEAVALQAPTNDLIAAAVRRHPGRFQGFATLATSAPAAAADELRRAVTELGLNGALVNANSRGRALDAPGFWDIYEAAEDLRAPVYLHPGVPVPAVTEAYYRGFGEPVNSMLATGAFGWHYDAGLTILRMIVAGVFDRFPGLQVILGHWGEVVLFYLDRVAAMDKLTALRRPIAEYFRSNIFITPGGISSHKYLRWSLETVGVERIMYASDYPFNTERAGSARRFLDTAPVDEAGRERIAYRNWEELIAGIRR
- Dicamba Decarboxylase Activity: High
- decarboxylation activity of dicamba: showed decarboxylation activity of dicamba
- Enzymatic Detection level: High

B2: 47 (protein, listed as Serratia odorifera)
chain: MAKIICLEEHTLDKALVMASMPAALAQAPFLSDWGKTITDGNLPDRSRPQIEKNDLINVKGADIGRGRLDDMDEAGITMQVLSVGGFPHLISAAEGVDLNRAANDRLANAVNAHPDRFAAFATLPWAQPDAAEKELERAVKELGFKGALLNGRPSIHFLDHPDYDGLLARFNALGVPLYLHPGLPVRSVQQAYYSGFSDEVTARLSMFGWGWHHEAGIHLLRLILSGAFDKYPNLQVISGHWGEMLPFWLQRLDDSLPQAATGLRRTITQTFREQVYVTPSGMLTLPHFQFIYALLGAERILFSVDYPYQTLDGVKAFIQSLPVPEEAKEAIAFRNAERLFGLTS
- Dicamba Decarboxylase Activity: High
- decarboxylation activity of dicamba: showed decarboxylation activity of dicamba
- Enzymatic Detection level: High

B3: 28 (protein, listed as Sphingomonas paucimobilis)
chain: MARLIATEEAVTFQPVVDALRAHSRTDDASLDMILVRDVYGDEPARPAMIGRLSDVTGERLAEMDSNGVDMHLLSLTAPGVQMFDAETGTRLARIANDLMAQTVAANPTRFAGLGTFAPQDPASAAREIERVATQLRLNGLVINSHTNDLYYDDPFFHPVFEAIEASGLALYIHPRAPSKQIDRAFRDYGMNSAIWGYGIETSTNAVRMILSGLFDRFPRLKIVLGHMGEAIPFWLWRLDYMHGNATTFGGAPKLKLKPSEYFRRNFAITTSGVESHAALRYSIEVLGPENVMWAIDYPYQPMAPAVQFIRTAPIPEDVKAMVAGGNAARIFRIT
- Dicamba Decarboxylase Activity: High
- decarboxylation activity of dicamba: showed decarboxylation activity of dicamba
- Enzymatic Detection level: High

B4: 34 (protein)
chain: MAQGKIGLEEHFAIPETLNDSAGFVPGDYWKELSRRLLDIQDDRLRQMDENGMEMMLLSLNAPAVQAVPDRKQACELAVRANDFLAEQVSRRPDRFQALAALPLQDPDFATVELTRCVNELGMRGALVNGFSQIDTPDNVVYYDAPQYASFWAAVEKLDVPFYLHPRNPIASWAQIYDGHPWLLGPTWAFGQETAVHALRLMASGLFDRHPALQIVLGHLGEGLPYSLWRIDNRNAWVKAPKTHPAKKTFRHYFQQNFHLTTSGNFHNQTLIDAILEIGADRILFSTDWPFENIDHAAKWFDSASISEADRTKIGRTNAMKLFKLVA
modifications: Cupriavidus necator
- Dicamba Decarboxylase Activity: High
- decarboxylation activity of dicamba: showed decarboxylation activity of dicamba
- Enzymatic Detection level: High

B5: 44 (protein, listed as Mycobacterium avium)
chain: MARIITVEEHFQHPEVSARVAELTGPAVEGLAEFGNAFSLDPDSTARLGGNRLAHMDQVGIDVQVVSHGNGSPGTLQHPEAVELCRRVNNDLAAQIAENPDRFRGFATLPLYDPAAAAEELRRCVGDLGFVGALIAGSYDGLFLDDERFDPILTAAEAVDFPIYVHPGLPEAPVSQRYYAGSWPASVHMMFSGPAFGWHAEAGIHIVRLILSGALDRHPTLKLLSGHWGELAAFYLERLDETLGLLPTGLERAPSDYYRQQVWITPSGMYNQNQLNFMTAELGAQRIIYSEDFPYVVRDNVSTFLEQAGLSEADTHAIAHTNAEALLRI
- Dicamba Decarboxylase Activity: High
- decarboxylation activity of dicamba: showed decarboxylation activity of dicamba
- Enzymatic Detection level: High

B6: 35 (protein)
chain: MAFKASRKIALEEHFAIDATVQDSAGFVPPSYWAELKRRLLDIHDRRIDEMDRNGVELMVLSLNAPTVQAVPNIKDAYDLSRRANDFLAEQIVKRPERFKGFAALPMQSPDLAARELERCVKELNFVGALVNGFSQVEESGTALYYDLPQYRQFWSVVQALDVPFYLHPRNPLPAHAPIYEGHPWLLGPTWAFGQETAVHALRLMGSGLFDEYPELKIILGHMGEGLPYSMWRIDNRNAWVETQPNYPAKKRIAEYFHKNFWLTTSGNFRTQTLIDAMLEIGSDRILFSTDWPFENVDHAAQWFDDAAISENDRIKIARTNAARLFKLEP
modifications: Burkholderia sp
- Dicamba Decarboxylase Activity: High
- decarboxylation activity of dicamba: showed decarboxylation activity of dicamba
- Enzymatic Detection level: High

B7: 30 (protein)
chain: MARGKIALEEHVSTPENNRLWDSTGEANRNGSEYMQDVERRLLDRSIQLEEMAQRNIDHVILSLTSPGAQSILDKAKAVSFARDTNDFIVDNYVKPNPDKFSAFATLALQNPEAAAEELERAVKKLGMKGALINGYTNVKDSEHGLYLDDESMLVFWDKVNELNVPVYLHPREPLEGPARGIYTGYESLIGSAWGFAQETAVHAIRLMMSGLFDRYPNLNLVLGHLGEGLVHMLPRTQHRLYRQRFGCGLGKAEKPLMHYLQNNFIVTTSGHFNTHSLNNAIEVMGADRVMFSVDYPYEDIHQACDWFDPLEMDEGLKEKIAWGNASRVFNIK
modifications: Enterobacter aerogenes
- Dicamba Decarboxylase Activity: High
- decarboxylation activity of dicamba: showed decarboxylation activity of dicamba
- Enzymatic Detection level: High

B8: 49 (protein, listed as Streptomyces sp.)
chain: MAKIIALEEHFSDPAVAKAGAARARALSPGFAASYSPASGLPYSPSPEVLENLAEKRLADMDAGGITMQVLSGLGAQTVPADVAPALVAGSNDKAAAAVRAHPDRFAAFAALPTATPEAAVAELDRSVNELGFVGTLIMGRTEGEFLDAPRFEPILARAAALKVPVFLHPGVPPREITDSNYAAGLPTGIGTRLQTAAWGWHQETAVHFLHLVHSGVLDRYPDLQFILGHWGEMIPFYLDRVDEALPQRATGLDRSFHEYFRENVYLAPSGMWSQAQLRFCLETVPLERIVFAVDYPFIGNEGAVPFLEKAELPQADKRKIAHENAERLLGL
- Dicamba Decarboxylase Activity: High
- decarboxylation activity of dicamba: showed decarboxylation activity of dicamba
- Enzymatic Detection level: High

B9: 46 (protein, listed as Rhodococcus opacus)
chain: MARIITLEEHYLDPAIAAASAPLARELSPDFAAAYDPASGLSYTPSAQVLQDLGQRRIADMDTHGISMQVLSCLTTQQVPADVAPDLVRAANDTAAAAVRAHPDRFAAFAALPTTAPDAAATELARCIDDLGFVGTMINGRTDGEFLDAPRFDPILATAAARNVPIYLHPAVPPRATSDSNYAGLAPLVTARLQTSAWGWHQETAVHFLHLVLSGVLDRYPNLQFILGHWGEMIPFYLDRLDEALPQAVTNLDRTISDYVRENVYITPSGMFNQAQLQYCVETLGVDRILYSVDYPFIGNDGAVSFLDEANLPDEAKHQIAHQNTEKLLGL
- Dicamba Decarboxylase Activity: High
- decarboxylation activity of dicamba: showed decarboxylation activity of dicamba
- Enzymatic Detection level: High

B10: 31 (protein, listed as Agrobacterium sp.)
chain: MAQGKVALEEHFAIPETLQDSAGFVPGDYWKELQHRLLDIQDTRLKLMDAHGIETMILSLNAPAVQAIPDKTKAIEIARRANDVLAEECAKRPDRFLAFAALPLQDPDAATEELQRCVNDLGFVGALVNGFSQEGDGQTPLYYDLPQYRPFWGEVEKLDVPFYLHPRNPLPQDSRIYDGHPWLLGPTWAFAQETAVHALRLMASGLFDEHPRLNIILGHMGEGLPYMMWRIDHRNAWVKLPPRYPAKRRFMDYFNENFHITTSGNFRTQTLIDAILEIGADRILFSTDWPFENIDHASDWFNATSIAEADRVKIGRTNARRLFKLDGA
- Dicamba Decarboxylase Activity: High
- decarboxylation activity of dicamba: showed decarboxylation activity of dicamba
- Enzymatic Detection level: High

B11: 36 (protein, listed as Agrobacterium sp.)
chain: MAQGKVALEEHFAIPETLQDSAGFVPGDYWTELQHRLLDIQDTRLKLMDAHGIETMILSLNAPAVQAIPDKTKAIEIARRANDALAEECAKRPNRFLAFAALPLQDPDAATQELQRCVNDLGFVGALVNGFSQEGDGQIPLYYDLPQYRPFWGEVEKLDVPFYLHPRNPLPQDSRIYDGHPWLLGPTWAFAQETAVHALRLMASGLFDEHPRLNIILGHMGEGLPYMMWRIDHRNAWVKLPPRYPAKRRFVDYFNENFHITTSGNFRTQTLIDAILEIGADRILFSTDWPFENIDHASDWFHATSIAEADRVKIGRTNARRLFKLDGR
- Dicamba Decarboxylase Activity: High
- decarboxylation activity of dicamba: showed decarboxylation activity of dicamba
- Enzymatic Detection level: High

B12: 33 (protein, listed as Rhizobium leguminosarum)
chain: MAQGKIALEEHFAIPETLQDSAGFVPGDYWKELSARLLDIQEKRLRLMDAHGIEKMILSLNAPAVQAIPDRAKALEISRRANDFLAEQCVKNPNRFLGFAALPLQDPDAATQELQRCVTTMGFVGALVNGFSQEGDGTTPLYYDLPQYRSFWAEVEKLNVPFYLHPRNPLPQDSRIYAGHSWLMGPTWAFAQETAVHALRLMGSGLFDEHPALRIIVGHMGEGLPYMMWRIDNRNAWVKVEKSYPAKRPIADYFNENFYITTSGNFRTQSLIDAMLEIGADRILFSADWPFENIDHAANWFDSATISEADRLKIGRTNAVSLFKLDR
- Dicamba Decarboxylase Activity: High
- decarboxylation activity of dicamba: showed decarboxylation activity of dicamba
- Enzymatic Detection level: High

B13: 43 (protein, listed as Rhizobium leguminosarum)
chain: MAQGKIALEEHFAIPETLQDSAGFVPGDYWTELSARLLDIQDKRLRLMDTHGIEKMILSLNAPAVQAIPDKAKAVEISRRANDFLAEQCVKNPNRFLGFAALPLQDPDAATQELQRCVTTMGFVGALVNGFSQEGDGTTPLYYDLPQYRPFWAEVEKLDVPFYLHPRNPLPQDSRIYAGHSWLMGPTWAFAQETAVHALRLMGSGLFDEHPALRIIVGHMGEGLPYMMWRIDNRNAWVKVEKSYPAKRPIADYFNENFYITTSGNFRTQSLIDAMLEIGADRILFSADWPFENVDHAANWFDSATISEADRLKIGRTNAVSLFKLDR
- Dicamba Decarboxylase Activity: High
- decarboxylation activity of dicamba: showed decarboxylation activity of dicamba
- Enzymatic Detection level: High
